Source: US8796201B2 (The Board of Trustees of the Leland Stanford Junior …, priority 2002, dated 2014)

Columns and labels:
[1] = Double-blind crossover gluten challenge: 25 g D-xylose 5-hour urine excretion test; assay type: in vivo, human (Celiac Sprue patients)
Source text: It was first established that a low-dose, short-term (5-10 g/day for 14 days) gluten oral supplement induces fat and carbohydrate malabsorption when given to asymptomatic Celiac Sprue patients on an otherwise gluten free diet. This protocol was modified to examine the effect of gluten pre-treated with pepsin, trypsin and chymotrypsin (PTC-Gluten) as compared to PTC-Gluten additionally treated with PEP (PTC-Gluten+PEP). In this study, Celiac patients maintaining a gluten-free diet ingested a supplement of 5 g/day gluten as PTC-Gluten or PTC-Gluten+PEP in an orange-lemon juice vehicle for 14 days in a double-blind crossover manner. A 6-week washout interval between individual arms of the crossover trial allowed patients to recover completely from the effects, if any, of the test material in the first arm.
Subjects and protocols: This study was approved by the Institutional Review Board of the Palo Alto Medical Foundation in Palo Alto, Calif., and all participants in the study were counseled regarding risks and signed an informed consent document. 22 patients were recruited who were in symptomatic remission on a gluten-free diet. Two patients dropped out of the study, one near the end of the first stage and the other prior to the second stage. The 20 patients who completed the study included 7 men and […] aged 21 to 78 (mean age 49). The time since diagnosis for the 20 patients ranged from 3 months to 18 years (mean 6 years). Patients provided copies of their initial small-intestinal biopsy pathology report and laboratory reports documenting a history of at least one positive celiac antibody (gliadin, endomysial or transglutaminase) to verify a diagnosis of Celiac Sprue. They also completed an entry questionnaire inquiring about their medical history, adherence to the gluten-free diet, and current symptoms. The format of the study was a double-blinded crossover in which each patient consumed either a low daily dose of a gluten supplement (5 g; equivalent of one-half slice of bread) that was predigested with pepsin, trypsin and chymotrypsin alone (PTC-Gluten) or PTC-Gluten treated with prolyl endopeptidase (PTC-Gluten+PEP). The PEP in the latter orange juice mixture was completely inactivated through a heating process following proteolysis of the gliadin peptides. […]
Studied variables: During each stage of the study, patients completed a daily questionnaire inquiring about symptoms and their adherence to the gluten-free diet. […] The serum anti-gliadin IgA antibodies and anti-tissue transglutaminase IgA and IgG antibodies were measured by an enzyme linked immunosorbent assay (ELISA) kit (INOVA Diagnostics, Inc., San Diego, Calif.). […] Total serum IgA levels were determined by an Integra instrument (Roche) (normal <81 mg/dl). […]

PQPQLPYPQPQLP = assay: Acceleration of brush border mediated digestion by exogenous endoproteases; assay type: biochemical, wheat
Procedure: FIG. 3. Dose dependent acceleration of brush border mediated digestion by exogenous endoproteases. […] This peptide was digested with 27 ng/μl brush border membranes, either alone, with increasing amounts of exogenous prolyl endopeptidase (PEP, specific activity 28 μU/pg) from Flavobacterium meningosepticum (US Biological, MA), or with additional elastase (E-1250, Sigma, Mo.), bromelain (B-5144, Sigma, Mo.) or papain (P-5306, Sigma, Mo.) (12). After one hour, the fraction of remaining (SEQ ID NO:4) […] (compared to the initial amount at t=0 min) was analyzed and quantified as in FIG. 1.
Alerted by the high proline content as a hallmark of most immunogenic gliadin peptides, a proline-specific endopeptidase was tested for the generation of new, free peptide termini. A literature search on available proteases led to the identification of prolyl endopeptidase (PEP) from Flavobacterium meningosepticum, which is specific for the C-terminal cleavage of prolines and readily available from recombinant sources (Yoshimoto et al. (1991) J. Biochem. 110, 873-8). The stable (SEQ ID NO:4) […] intermediate was digested with BBM in the presence of exogenous PEP. […] As little as 3.5 pg PEP/27 ng BBM protein was sufficient to double the extent of proteolysis of this gliadin fragment compared to incubation with BBM alone. In comparison, other commonly used proteases like papain, bromelain or porcine elastase were much less efficient, requiring 30-fold (papain) or 3000-fold (bromelain, elastase) higher amounts of enzyme compared to PEP to give similar results. Their proteolysis was restricted to the cleavage of the Gln^4-Leu^5 and/or Gln^11-Leu^12 bonds.
A similar preferential cleavage was found for (SEQ ID NO:1) QLQPFP^↓QPQLPY. This is in agreement with the preference of this prolyl endopeptidase for a second proline in the S2′ position (Bordusa and Jakubke (1998) Bioorg. Med. Chem. 6, 1775-80). Based on this P^↓XP motif and on the present data, up to 16 new, major cleavage sites can be predicted in the α2-gliadin sequence, a major source of immunodominant epitopes identified thus far upon PEP treatment. All of them are located in the critical N-terminal part. The internal cleavage by PEP can be expected to generate additional (otherwise inaccessible) substrates for DPP IV and DCP thereby complementing the natural assimilation process of gliadins by the BBM. Thus, the specificity of prolyl endopeptidase is ideally suited for detoxification of persistent immunoactive gliadin peptides in Celiac Sprue.

[2] = All patients with full xylose data (N = 14)
[3] = Subgroup with normal (>4 gm/5 hrs) Pre-stage Xylose (N = 10)

B1: PEP: prolyl endopeptidase; Examples 1-2: from Flavobacterium meningosepticum (US Biological); Example 11: source not stated (protein, UniProt P27028 21-705, looked up)
Prolyl endopeptidase: QNSNVLKYPETKKVSHTDTYFGTQVSDPYRWLEDDRAEDTKAWVQQEVKFTQDYLAQIPFRDQLKKQLMDIWNYEKISAPFKKGKYTYFSKNDGLQAQSVLYRKDAAGKTEVFLDPNKFSEKGTTSLASVSFNKKGTLVAYSISEGGSDWNKIIILDAETKKQLDETLLDVKFSGISWLGDEGFFYSSYDKPKEGSVLSGMTDKHKVYFHKLGTKQSQDELIIGGDKFPRRYIGAYVTDDQRYLVVSAANATNGNELYIKDLKNKTDFIPIITGFDSNVNVADTDGDTLYLFTDKDAPNKRLVKTTIQNPKAETWKDVIAETSEPLEINTGGGYFFATYMKDAIDQVKQYDKNGKLVRAIKLPGSGNASGFGGEKTEKDLYYSFTNYITPPTIFKYNVTTGNSEVYQKPKVKFNPENYVSEQVFYTSSDGTKIPMMISYKKGLKKDGKNPTILYSYGGFNISLQPAFSVVNAIWMENGGIYAVPNIRGGGEYGKKWHDAGTKMQKKNVFNDFIAAGEYLQKNGYTSKEYMALSGRSNGGLLVGATMTMRPDLAKVAFPGVGVLDMLRYNKFTAGAGWAYDYGTAEDSKEMFEYLKSYSPVHNVKAGTCYPSTMVITSDHDDRVVPAHSFKFGSELQAKQSCKNPILIRIETNAGHGAGRSTEQVVAENADLLSFALYEMGIKSLK
[1]; [2]
  PEP Effective (patients / patients with positive gluten challenge), urine xylose: 4/8
  PEP Effective, urine xylose: 50%
[1]; [3]
  PEP Effective (patients / patients with positive gluten challenge), urine xylose: 3/5
  PEP Effective, urine xylose: 60%
PQPQLPYPQPQLP
  preferred cleavage bond in PQPQLPYPQPQLP: Pro^8-Gln^9 and to a lesser extent the Pro^6-Tyr^7 bond
PQPQLPYPQPQLP; 27 ng/μl BBM, one hour
  amount sufficient to double the extent of proteolysis of PQPQLPYPQPQLP compared to BBM alone: 3.5 pg PEP/27 ng BBM protein
